Experimental findings from PMC11696143, “A higher order PUF complex is central to regulation of C. elegans germline stem cells” (Nature Communications, 2024) are described below.

Data set [1] has as its target T1, LST-1 19-98 (Caenorhabditis elegans, UniProt P91820 19-98).
T1 sequence: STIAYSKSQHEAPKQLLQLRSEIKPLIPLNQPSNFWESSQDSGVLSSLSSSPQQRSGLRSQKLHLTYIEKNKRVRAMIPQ
The data set is described as follows: EMSA; 10 uM LST-1 19-98; nonspecific intermediate band, seen with FBF-2 present; EMSA: 5 nM RNA, 10 mM HEPES pH 7.4, 75 mM NaCl, 0.01% Tween 20, 0.1 mg/ml BSA, 0.1 mg/ml yeast tRNA, 2 mM DTT, 4 C overnight. To be noted: protein: recombinant; tags: His6-SUMO removed by Ulp1; GST removed by TEV when coexpressed; label: 3'-Cy5.

Data set [2] deals with T2, FBF-2 RBD (Caenorhabditis elegans, UniProt Q09312 164-575).
T2 sequence: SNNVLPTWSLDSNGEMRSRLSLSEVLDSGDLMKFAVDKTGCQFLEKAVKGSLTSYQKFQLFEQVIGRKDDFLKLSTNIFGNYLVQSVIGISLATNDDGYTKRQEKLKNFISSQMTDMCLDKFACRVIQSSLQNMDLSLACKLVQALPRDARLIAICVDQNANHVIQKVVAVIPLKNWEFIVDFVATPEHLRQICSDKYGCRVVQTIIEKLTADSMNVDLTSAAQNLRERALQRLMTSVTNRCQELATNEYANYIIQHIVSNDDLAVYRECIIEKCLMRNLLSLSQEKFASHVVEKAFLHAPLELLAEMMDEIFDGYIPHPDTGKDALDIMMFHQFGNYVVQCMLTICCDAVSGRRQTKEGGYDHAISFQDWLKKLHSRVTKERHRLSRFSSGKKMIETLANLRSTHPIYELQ
In words: EMSA; apparent Kd, Hill fit; EMSA: 5 nM RNA, 10 mM HEPES pH 7.4, 75 mM NaCl, 0.01% Tween 20, 0.1 mg/ml BSA, 0.1 mg/ml yeast tRNA, 2 mM DTT, 4 C overnight. Conditions: protein: recombinant; tags: His-SUMO, removed by TEV; label: 3'-Cy5. On the technique in general: In EMSA bound probe runs differently from free probe, usually more slowly.

Data set [3] has as its target T3, FBF-2 RBD+CT (Caenorhabditis elegans, UniProt Q09312 164-632).
T3 sequence: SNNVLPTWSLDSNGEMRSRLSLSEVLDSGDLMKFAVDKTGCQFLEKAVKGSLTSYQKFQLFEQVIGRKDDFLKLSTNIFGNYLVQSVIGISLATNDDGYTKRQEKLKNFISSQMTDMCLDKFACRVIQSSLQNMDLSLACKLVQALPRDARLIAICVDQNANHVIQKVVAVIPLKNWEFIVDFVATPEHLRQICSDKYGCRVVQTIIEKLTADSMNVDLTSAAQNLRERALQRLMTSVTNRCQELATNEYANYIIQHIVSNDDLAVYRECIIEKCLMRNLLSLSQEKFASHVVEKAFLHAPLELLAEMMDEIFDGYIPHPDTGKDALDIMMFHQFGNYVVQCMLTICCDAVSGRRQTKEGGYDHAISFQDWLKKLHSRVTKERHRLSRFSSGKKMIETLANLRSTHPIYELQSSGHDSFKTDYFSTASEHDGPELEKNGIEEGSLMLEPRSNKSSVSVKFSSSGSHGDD
The description is as above. Conditions: protein: recombinant; tags: His6-SUMO, removed by Ulp1; label: 3'-Cy5.

In data set [4] the target is T4, FBF-2 RBD+CT L610A (Caenorhabditis elegans, UniProt Q09312 164-632, L610A).
T4 sequence: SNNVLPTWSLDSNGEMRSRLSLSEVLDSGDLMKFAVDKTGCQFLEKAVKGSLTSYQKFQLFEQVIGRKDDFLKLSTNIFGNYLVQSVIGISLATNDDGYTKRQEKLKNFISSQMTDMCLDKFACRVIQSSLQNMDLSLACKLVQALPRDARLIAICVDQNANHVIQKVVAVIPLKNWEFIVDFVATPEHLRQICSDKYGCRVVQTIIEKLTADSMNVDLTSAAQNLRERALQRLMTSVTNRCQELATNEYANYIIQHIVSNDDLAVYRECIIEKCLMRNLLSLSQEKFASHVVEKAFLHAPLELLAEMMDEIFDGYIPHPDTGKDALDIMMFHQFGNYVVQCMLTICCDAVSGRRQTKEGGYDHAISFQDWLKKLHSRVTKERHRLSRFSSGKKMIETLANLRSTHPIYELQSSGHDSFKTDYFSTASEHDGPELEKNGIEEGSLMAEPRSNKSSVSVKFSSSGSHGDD
The description is as above. To be noted: protein: recombinant; label: 3'-Cy5.

Data set [5] deals with T5, FBF-2 RBD+CT;LST-1 19-98 (Caenorhabditis elegans;Caenorhabditis …, UniProt Q09312;P91820 164-632;19-98, |).
T5 sequence 1: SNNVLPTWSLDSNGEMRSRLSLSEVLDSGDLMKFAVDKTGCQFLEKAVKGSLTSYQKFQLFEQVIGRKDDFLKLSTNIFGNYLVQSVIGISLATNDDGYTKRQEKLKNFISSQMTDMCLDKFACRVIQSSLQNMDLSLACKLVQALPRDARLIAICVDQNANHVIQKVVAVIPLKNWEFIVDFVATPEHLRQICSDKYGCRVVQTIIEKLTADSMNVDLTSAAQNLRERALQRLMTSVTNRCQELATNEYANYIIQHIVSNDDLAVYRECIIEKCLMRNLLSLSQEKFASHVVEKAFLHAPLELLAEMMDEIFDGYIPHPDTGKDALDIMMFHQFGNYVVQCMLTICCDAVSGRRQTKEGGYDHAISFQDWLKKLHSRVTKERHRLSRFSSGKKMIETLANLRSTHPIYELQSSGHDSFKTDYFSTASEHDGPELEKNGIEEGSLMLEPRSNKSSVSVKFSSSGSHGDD
T5 sequence 2: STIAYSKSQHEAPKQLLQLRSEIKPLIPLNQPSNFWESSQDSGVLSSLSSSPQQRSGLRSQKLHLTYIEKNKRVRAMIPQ
The data set is described as follows: EMSA; 10 uM LST-1 19-98; apparent Kd; EMSA: 5 nM RNA, 10 mM HEPES pH 7.4, 75 mM NaCl, 0.01% Tween 20, 0.1 mg/ml BSA, 0.1 mg/ml yeast tRNA, 2 mM DTT, 4 C overnight. To be noted: protein: recombinant;recombinant; tags: His6-SUMO, removed by Ulp1;His6-SUMO removed by Ulp1; GST removed by TEV when coexpressed; chain copies: 2;1; label: 3'-Cy5.

In data set [6] the target is T6, FBF-2 RBD;LST-1 19-98 (Caenorhabditis elegans;Caenorhabditis …, UniProt Q09312;P91820 164-575;19-98, |).
T6 sequence 1: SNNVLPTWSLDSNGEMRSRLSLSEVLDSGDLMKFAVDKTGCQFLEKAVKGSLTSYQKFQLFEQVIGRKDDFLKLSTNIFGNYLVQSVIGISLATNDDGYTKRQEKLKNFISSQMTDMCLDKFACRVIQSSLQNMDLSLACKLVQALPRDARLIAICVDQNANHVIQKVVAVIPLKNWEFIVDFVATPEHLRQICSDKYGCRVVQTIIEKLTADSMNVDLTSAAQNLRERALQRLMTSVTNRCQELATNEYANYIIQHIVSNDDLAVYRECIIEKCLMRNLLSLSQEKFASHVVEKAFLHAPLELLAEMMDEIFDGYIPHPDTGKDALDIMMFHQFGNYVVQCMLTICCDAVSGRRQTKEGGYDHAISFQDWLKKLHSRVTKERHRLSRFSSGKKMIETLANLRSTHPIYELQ
T6 sequence 2: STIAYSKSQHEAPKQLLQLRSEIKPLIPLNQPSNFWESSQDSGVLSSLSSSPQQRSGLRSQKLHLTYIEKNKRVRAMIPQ
Described as above. Conditions: protein: recombinant;recombinant; tags: His-SUMO, removed by TEV;His6-SUMO removed by Ulp1; GST removed by TEV when coexpressed; chain copies: 2;1; label: 3'-Cy5.

For AUCAUGUGCCAUACAUCAUGUUGCCAUUU (ssRNA) [gld-1 FBEa-FBEa* (EMSA)], the binding result in data set [1] is reported as “binds”. The Kd came out at 131 ± 10 nM in data set [2]; 435 ± 25 nM in data set [3]; 80 ± 11 nM in data set [4]; 109 ± 2 nM in data set [5]; 107 ± 3 nM in data set [6].
